Data from US20240392024A1 (SHANGHAI CELGEN BIO PHARMACEUTICAL, published 2024).
One block for each binder: values may come before it.

Experiments:
[1] = target: T1, human TNFR2 on the cell membrane (human, UniProt P20333 23-461); assay: flow cytometry, CHO-TNFR2 cells
T1 construct: whole, on cells; One molecule for all cell formats; also called TNFR2-CHO cells; CHO-TNFR2
T1 sequence (looked up): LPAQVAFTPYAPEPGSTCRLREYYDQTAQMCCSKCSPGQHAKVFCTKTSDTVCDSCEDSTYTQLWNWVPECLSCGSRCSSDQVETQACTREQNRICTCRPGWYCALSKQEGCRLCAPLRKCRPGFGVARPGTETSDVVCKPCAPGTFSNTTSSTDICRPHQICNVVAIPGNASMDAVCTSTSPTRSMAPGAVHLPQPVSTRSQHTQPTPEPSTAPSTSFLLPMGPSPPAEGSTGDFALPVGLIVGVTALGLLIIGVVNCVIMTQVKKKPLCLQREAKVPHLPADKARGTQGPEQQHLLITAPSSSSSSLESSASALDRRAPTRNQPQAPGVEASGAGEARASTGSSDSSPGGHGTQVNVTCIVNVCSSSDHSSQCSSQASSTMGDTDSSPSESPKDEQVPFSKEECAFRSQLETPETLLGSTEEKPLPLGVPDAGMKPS
Summary of the method: (§1)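 Flow cytometry on CHO cells stably overexpressing human TNFR2, made by pcDNA3.4-TNFR2 transfection, drug selection and single-clone sorting. Cells in 96-deep-well plates were incubated with serially diluted antibodies, washed and stained with a fluorescent anti-IgG secondary antibody. Samples were read on a Beckman CytoFLEX. EC50 is reported from the dilution series.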

[2] = target: T2, TNFR2-His (Sino Biological, 10417-H08H, NP_001057.1 Met1-Asp257, with multi-histidine tag expressed on … (human, UniProt P20333 23-257)); assay: ELISA, plate coated with TNFR2-His
T2 construct: range 1-257; Bought protein; also called recombinant human TNFR2 protein; TNFR2-His antigen; not shown: C-terminal multi-histidine tag
T2 sequence (looked up): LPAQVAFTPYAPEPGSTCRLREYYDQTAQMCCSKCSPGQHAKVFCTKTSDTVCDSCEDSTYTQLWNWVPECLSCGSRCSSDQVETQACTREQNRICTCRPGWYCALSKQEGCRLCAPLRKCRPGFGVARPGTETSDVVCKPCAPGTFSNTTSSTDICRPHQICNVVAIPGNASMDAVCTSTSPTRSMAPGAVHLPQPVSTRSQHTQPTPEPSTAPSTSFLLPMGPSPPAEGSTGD
Summary of the method: (§2)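 ELISA on plates coated with recombinant human TNFR2 carrying a C-terminal His tag, then blocked. Serially diluted antibodies were incubated, followed by an enzyme-labelled anti-IgG secondary antibody. Plates were developed with TMB and read on a microplate reader. EC50 is reported from the dilution series.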

[3] = target: T2, TNFR2-His (Sino Biological, 10417-H08H, …); assay: ELISA, coated TNFR2-His
Summary of the method: as §2

[4] = target: T1, human TNFR2 on the cell membrane; assay: flow cytometry on CHO-TNFR2 cells
Summary of the method: as §1

[5] = target: T2, TNFR2-His (Sino Biological, 10417-H08H, …); assay: BLI, antibody captured on AHC probe, TNFR2-His in solution
Summary of the method: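 Kon, koff and Kd were derived from kinetic association measurements by bio-layer interferometry on an Octet in Basic Kinetics mode. Antibody-capture sensors held antibodies at 50 nM in Q buffer (10 mM PBS pH 7.4, 0.02% Tween 20, 0.2% BSA). These sensors were then placed in recombinant human TNFR2, diluted 2-fold in Q buffer from a top concentration of 100 nM.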

B1: 33C12huVH2 + huVL2(P07301) (antibody, V domains shown)
VH: EVQLVESGGGLVKPGGSLRLSCAASGFTFSDYTMSWVRQAPGKGLEWVATISTGGSYTYYPDSVKGRFTISRDNAKNTLYLQMSSLRAEDTAVYYCARDGGYDGDYFDYWGQGTTVTVSS
VL: ENVLTQSPATLSLSPGERATLSCRASSSVSSSYLHWYQQKPGQAPRLWIYRTSNLASGVPARFSGSGSGTDFTLTISRLEPEDFAVYYCQQYSGYPLTFGGGTKLEIK
notes: Humanized 33C12
EC50 [1]: 0.873 nM
EC50 [2]: 0.132 µg/mL
EC50 [3]: 0.886 nM
EC50 [4]: 0.13 µg/mL
Kd [5]: 17.8 nM
koff [5]: 0.00279 s⁻¹
kon [5]: 157000 M⁻¹ s⁻¹

B2: 33C12huVH2 + huVL3(P07303) (antibody, V domains shown)
VH: EVQLVESGGGLVKPGGSLRLSCAASGFTFSDYTMSWVRQAPGKGLEWVATISTGGSYTYYPDSVKGRFTISRDNAKNTLYLQMSSLRAEDTAVYYCARDGGYDGDYFDYWGQGTTVTVSS
VL: EIVLTQSPATLSLSPGERATLSCRASSSVSSSYLHWYQQKPGQAPRLLIYRTSNLATGIPDRFSGSGSGTDFTLTISRLEPEDFAVYYCQQYSGYPLTFGGGTKLEIK
notes: Humanized 33C12
EC50 [1]: 1.12 nM
EC50 [2]: 0.115 µg/mL
EC50 [3]: 0.771 nM
EC50 [4]: 0.167 µg/mL
Kd [5]: 16.3 nM
koff [5]: 0.00167 s⁻¹
kon [5]: 102000 M⁻¹ s⁻¹

B4: 33C12huVH1 + huVL1(P07298) (antibody, V domains shown)
VH: DVQLVESGGGLVKPGGSLRLSCAASGFTFSDYTMSWVRQAPGKGLEWVATISTGGSYTYYPDSVKGRFTISRDNAKNTLYLQMSSLRAEDTAVYYCTRDGGYDGDYFDYWGQGTTVTVSS
VL: ENVLTQSPATLSLSPGERATMSCRASSSVSSSYLHWYQQKPGQAPRLWIYRTSNLASGVPARFSGSGSGTDYTLTISRVEPEDFAVYYCQQYSGYPLTFGGGTKLEIK
notes: Humanized 33C12
EC50 [1]: 0.448 nM
EC50 [2]: 0.0646 µg/mL
EC50 [3]: 0.433 nM
EC50 [4]: 0.0669 µg/mL
Kd [5]: 17.7 nM
koff [5]: 0.00171 s⁻¹
kon [5]: 96400 M⁻¹ s⁻¹

The remaining binders from weak to strong by EC50 [1], led by results:

EC50 [1]: 3.01 nM
EC50 [2]: 0.303 µg/mL
EC50 [3]: 2.03 nM
EC50 [4]: 0.449 µg/mL
Kd [5]: 11.9 nM
koff [5]: 0.00188 s⁻¹
kon [5]: 158000 M⁻¹ s⁻¹
B5: 33C12huVH3 + huVL2(P07302) (antibody, V domains shown)
VH: EVQLVESGGGLVKPGGSLRLSCAASGFTFSDYTMSWVRQAPGKGLEWVATISTGGSYTYYADSVKGRFTISRDNAKNSLYLQMNSLRAEDTAVYYCARDGGYDGDYFDYWGQGTTVTVSS
VL: ENVLTQSPATLSLSPGERATLSCRASSSVSSSYLHWYQQKPGQAPRLWIYRTSNLASGVPARFSGSGSGTDFTLTISRLEPEDFAVYYCQQYSGYPLTFGGGTKLEIK
notes: Humanized 33C12

EC50 [1]: 2.27 nM
EC50 [2]: 0.218 µg/mL
EC50 [3]: 1.46 nM
EC50 [4]: 0.34 µg/mL
Kd [5]: 15.1 nM
koff [5]: 0.0013 s⁻¹
kon [5]: 86100 M⁻¹ s⁻¹
B6: 33C12huVH2 + huVL1(P07299) (antibody, V domains shown)
VH: EVQLVESGGGLVKPGGSLRLSCAASGFTFSDYTMSWVRQAPGKGLEWVATISTGGSYTYYPDSVKGRFTISRDNAKNTLYLQMSSLRAEDTAVYYCARDGGYDGDYFDYWGQGTTVTVSS
VL: ENVLTQSPATLSLSPGERATMSCRASSSVSSSYLHWYQQKPGQAPRLWIYRTSNLASGVPARFSGSGSGTDYTLTISRVEPEDFAVYYCQQYSGYPLTFGGGTKLEIK
notes: Humanized 33C12

EC50 [1]: 1.44 nM
EC50 [2]: 0.161 µg/mL
EC50 [3]: 1.08 nM
EC50 [4]: 0.214 µg/mL
Kd [5]: 12.7 nM
koff [5]: 0.00223 s⁻¹
kon [5]: 175000 M⁻¹ s⁻¹
B3: 33C12huVH3 + huVL1(P07300) (antibody, V domains shown)
VH: EVQLVESGGGLVKPGGSLRLSCAASGFTFSDYTMSWVRQAPGKGLEWVATISTGGSYTYYADSVKGRFTISRDNAKNSLYLQMNSLRAEDTAVYYCARDGGYDGDYFDYWGQGTTVTVSS
VL: ENVLTQSPATLSLSPGERATMSCRASSSVSSSYLHWYQQKPGQAPRLWIYRTSNLASGVPARFSGSGSGTDYTLTISRVEPEDFAVYYCQQYSGYPLTFGGGTKLEIK
notes: Humanized 33C12
